Where “and” joins values, the source holds several entries; their conditions need not be identical. Equal entries are not always repeated.
T1: Human CD32a R131 (human, UniProt P12318 36-218, limits assumed, biotinylated)
T1 construct: Bought recombinant receptor; also called hFcγRIIa R131
T1 sequence (looked up): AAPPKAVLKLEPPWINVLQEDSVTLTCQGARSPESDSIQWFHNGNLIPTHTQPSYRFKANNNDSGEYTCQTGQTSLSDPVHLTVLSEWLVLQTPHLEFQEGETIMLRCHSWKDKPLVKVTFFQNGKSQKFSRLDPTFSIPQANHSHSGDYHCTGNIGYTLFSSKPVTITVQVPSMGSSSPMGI

T2: Human CD32a H131 (human, UniProt P12318 36-218, limits assumed, biotinylated)
T2 construct: Bought recombinant receptor; also called hFcγRIIa H131
T2 sequence (looked up): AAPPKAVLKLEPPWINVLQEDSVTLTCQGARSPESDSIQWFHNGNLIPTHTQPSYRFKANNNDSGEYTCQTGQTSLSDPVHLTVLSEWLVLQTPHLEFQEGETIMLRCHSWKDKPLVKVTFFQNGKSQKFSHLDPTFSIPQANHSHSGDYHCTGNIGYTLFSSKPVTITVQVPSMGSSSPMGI

T3: Human CLEC12A-His (human, UniProt Q5QGZ9 65-265)
T3 construct: Recombinant soluble protein made in house; also called hCLEC12A-His; hCLEC12A; not shown: His tag
T3 sequence: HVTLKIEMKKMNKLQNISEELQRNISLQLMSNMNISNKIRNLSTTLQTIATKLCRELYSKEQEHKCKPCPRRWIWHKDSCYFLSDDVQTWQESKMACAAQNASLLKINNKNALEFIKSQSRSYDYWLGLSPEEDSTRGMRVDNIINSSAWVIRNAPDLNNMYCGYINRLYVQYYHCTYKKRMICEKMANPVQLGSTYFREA

T4: Human CLEC12A-K244Q-His (human, UniProt Q5QGZ9 65-265)
T4 construct: Polymorphic variant; also called hCLEC12A (Q244); not shown: His tag
T4 chain: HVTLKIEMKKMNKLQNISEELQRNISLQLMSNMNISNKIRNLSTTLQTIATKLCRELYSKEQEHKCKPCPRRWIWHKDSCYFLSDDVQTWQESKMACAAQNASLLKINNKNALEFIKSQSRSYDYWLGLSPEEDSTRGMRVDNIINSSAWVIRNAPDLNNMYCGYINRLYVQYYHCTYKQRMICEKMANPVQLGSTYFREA

T5: mFc-hNKG2D (human, UniProt P26718 73-216)
T5 construct: extracellular domain; Recombinant mFc-tagged NKG2D dimer, made in house; also called human NKG2D; not shown: mouse Fc tag
T5 sequence (looked up): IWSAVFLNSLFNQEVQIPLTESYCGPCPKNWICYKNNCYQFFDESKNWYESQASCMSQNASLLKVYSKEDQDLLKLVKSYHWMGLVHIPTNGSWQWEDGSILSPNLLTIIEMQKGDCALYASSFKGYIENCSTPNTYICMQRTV

T6: recombinant human CLEC12A-His (human, UniProt Q5QGZ9 65-265)
T6 construct: also called hCLEC12A-His; hCLEC12A
T6 sequence: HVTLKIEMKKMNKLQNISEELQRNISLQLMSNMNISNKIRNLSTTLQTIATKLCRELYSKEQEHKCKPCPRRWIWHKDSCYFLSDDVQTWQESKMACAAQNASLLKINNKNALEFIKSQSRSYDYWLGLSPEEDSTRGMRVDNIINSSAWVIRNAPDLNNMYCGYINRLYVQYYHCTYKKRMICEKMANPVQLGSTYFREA


Assays:
Human CD32a R131 = biological target: T1, Human CD32a R131; test: SPR, steady state fit; average for AB0192
Human CD32a H131 = biological target: T2, Human CD32a H131; test: SPR, steady state fit; average for AB0192
Human CLEC12A-His = biological target: T3, Human CLEC12A-His; test: SPR, untreated CLEC12A; average of 3 replicates
Human CLEC12A-K244Q-His = biological target: T4, Human CLEC12A-K244Q-His; test: SPR, hCLEC12A (Q244) variant
mFc-hNKG2D = biological target: T5, mFc-hNKG2D; test: SPR, 37 C, mFc-hNKG2D captured, 1:1 kinetic fit; average
Description: NKG2D is a dimer in nature, therefore recombinant mFc-tagged NKG2D dimer was used for this experiment. […] Two different fits were utilized to obtain the equilibrium affinity data: steady state affinity fit and kinetic fit.

Human CD64 = biological target: T7, Human CD64 (human, UniProt P12314 16-288, biotinylated); test: SPR, human CD64 captured; average for AB0192
T7 construct: Bought recombinant receptor; also called hFcγRI; Human CD64 (FcγRI)

[1] = biological target: T8, recombinant human CD16a F158 (human, UniProt P08637 17-208); test: SPR 25C, steady state
T8 construct: also called FcγRIIIa F158

recombinant human FcRn = biological target: T9, recombinant human FcRn (human, UniProt P55899 24-297; P61769 21-119); test: SPR 25C, pH 6.0, steady state; pH 6.0; third replicate
T9 construct: also called hFcRn

[2] = biological target: T6, recombinant human CLEC12A-His; test: SPR 37C, average
recombinant human CD16b = biological target: T10, recombinant human CD16b (human, UniProt O75015 17-200, limits assumed, biotinylated); test: SPR 25C, steady state
T10 construct: also called FcγRIIIb
T10 sequence (O75015 17-200 limits assumed): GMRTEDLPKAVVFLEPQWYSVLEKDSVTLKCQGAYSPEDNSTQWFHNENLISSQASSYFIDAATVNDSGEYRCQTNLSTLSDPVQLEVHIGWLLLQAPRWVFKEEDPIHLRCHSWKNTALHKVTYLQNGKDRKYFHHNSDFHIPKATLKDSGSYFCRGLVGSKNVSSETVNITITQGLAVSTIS

T7 sequence (P12314 16-288 limits assumed): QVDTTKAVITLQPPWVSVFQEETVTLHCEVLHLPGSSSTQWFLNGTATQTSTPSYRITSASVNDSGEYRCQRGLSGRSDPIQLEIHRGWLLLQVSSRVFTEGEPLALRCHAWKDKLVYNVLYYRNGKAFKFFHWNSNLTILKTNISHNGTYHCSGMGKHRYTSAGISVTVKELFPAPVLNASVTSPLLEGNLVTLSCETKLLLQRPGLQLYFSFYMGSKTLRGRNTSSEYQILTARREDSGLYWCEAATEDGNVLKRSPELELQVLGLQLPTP
T8 sequence (P08637 17-208 limits assumed): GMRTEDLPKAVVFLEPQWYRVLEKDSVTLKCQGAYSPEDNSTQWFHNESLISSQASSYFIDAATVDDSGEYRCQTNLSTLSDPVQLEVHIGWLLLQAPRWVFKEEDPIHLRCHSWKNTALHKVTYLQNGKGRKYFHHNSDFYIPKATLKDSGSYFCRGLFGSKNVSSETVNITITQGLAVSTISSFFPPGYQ

Row | Kd (Human CD32a R131) [nM] | Kd (Human CD32a H131) [nM] | Kd (Human CLEC12A-His) [nM] | koff (Human CLEC12A-His) [s⁻¹] | kon (Human CLEC12A-His) [M⁻¹ s⁻¹] | Kd (Human CLEC12A-K244Q-His) [nM] | koff (Human CLEC12A-K244Q-His) [s⁻¹] | kon (Human CLEC12A-K244Q-His) [M⁻¹ s⁻¹] | koff (mFc-hNKG2D) [s⁻¹] | kon (mFc-hNKG2D) [M⁻¹ s⁻¹] | Kd (Human CD64) [nM] | koff (Human CD64) [s⁻¹] | kon (Human CD64) [M⁻¹ s⁻¹] | Kd [1] | Kd (recombinant human FcRn) [nM] | Kd [2] [nM] | koff [2] [s⁻¹] | kon [2] [M⁻¹ s⁻¹] | Kd (recombinant human CD16b) | Binder
1 | 1400 | 1010 | 1.65 | 0.00115 | 698000 | 4.51 | 0.0037 | 824000 | 0.146 | 188000 | 5.2 | 0.00025 | 48000 | – | – | – | – | – | – | AB0192 TriNKET (other, the condition stands under assay; also called AB0192 Lot AB0192-005) EVQLVESGGGVVQPGGSLRLSCAASGFTFNAFGMHWVRQAPGKCLEWVAFISSGSTSIYYANTVKGRFTISRDNSKNTLYLQMNSLRAEDTAVYYCARDGYPTGGAMDYWGQGTSVTVSSGGGGSGGGGSGGGGSGGGGSDIQMTQSPSSLSASVGDRVTITCKASQDIYNYLSWFQQKPGKAPKPLIYRANILVSGVPSRFSGSGSGQDYTFTISSLQPEDIATYYCLQFDAFPFTFGCGTKLEIKGSDKTHTCPPCPAPELLGGPSVFLFPPKPKDTLMISRTPEVTCVVVDVSHEDPEVKFNWYVDGVEVHNAKTKPREEQYNSTYRVVSVLTVLHQDWLNGKEYKCKVSNKALPAPIEKTISKAKGQPREPRVYTLPPCRDELTKNQVSLTCLVKGFYPSDIAVEWESNGQPENNYKTTPPVLVSDGSFTLYSKLTVDKSRWQQGNVFSCSVMHEALHNHYTQKSLSLSPG heavy: EVQLVESGGGLVKPGGSLRLSCAASGFTFSSYSMNWVRQAPGKGLEWVSSISSSSSYIYYADSVKGRFTISRDNAKNSLYLQMNSLRAEDTAVYYCARGAPIGAAAGWFDPWGQGTLVTVSSASTKGPSVFPLAPSSKSTSGGTAALGCLVKDYFPEPVTVSWNSGALTSGVHTFPAVLQSSGLYSLSSVVTVPSSSLGTQTYICNVNHKPSNTKVDKKVEPKSCDKTHTCPPCPAPELLGGPSVFLFPPKPKDTLMISRTPEVTCVVVDVSHEDPEVKFNWYVDGVEVHNAKTKPREEQYNSTYRVVSVLTVLHQDWLNGKEYKCKVSNKALPAPIEKTISKAKGQPREPQVCTLPPSRDELTENQVSLTCLVKGFYPSDIAVEWESNGQPENNYKTTPPVLDSDGSFFLYSWLTVDKSRWQQGNVFSCSVMHEALHNHYTQKSLSLSPG light: DIQMTQSPSSVSASVGDRVTITCRASQGISSWLAWYQQKPGKAPKLLIYAASSLQSGVPSRFSGSGSGTDFTLTISSLQPEDFATYYCQQGVSFPRTFGGGTKVEIKRTVAAPSVFIFPPSDEQLKSGTASVVCLLNNFYPREAKVQWKVDNALQSGNSQESVTEQDSKDSTYSLSSTLTLSKADYEKHKVYACEVTHQGLSSPVTKSFNRGEC
2 | – | – | – | – | – | – | – | – | – | – | – | – | – | 1130 nM and 1120 nM and 1090 nM | 1500 | 0.57 | 0.000494 | 844000 | 7600 nM and 7200 nM and 8600 nM and 6500 nM | F3'-1602 TriNKET (other, CLEC12A scFv-Fc, NKG2D A49MI Fab-Fc, human IgG1 Fc; also called AB0237) QLQLQESGPGLVKPSETLSLTCTVSGFSLTNYGLHWIRQPPGKCLEWIGVIWSGGKTDYNPSLKSRVTISKDTSKNQFSLKLSSVQAADTAVYYCAKYDYDDSLDYWGQGTLVTVSSGGGGSGGGGSGGGGSGGGGSDIQMTQSPSSLSASVGDRVTITCHASQNINFWLSWYQQKPGKAPKLLIYEASNLHTGVPSRFSGSGSGTRFTLTISSLQPEDIATYYCQQSHSYPLTFGCGTKLEIKGSDKTHTCPPCPAPELLGGPSVFLFPPKPKDTLMISRTPEVTCVVVDVSHEDPEVKFNWYVDGVEVHNAKTKPREEQYNSTYRVVSVLTVLHQDWLNGKEYKCKVSNKALPAPIEKTISKAKGQPREPRVYTLPPCRDELTKNQVSLTCLVKGFYPSDIAVEWESNGQPENNYKTTPPVLVSDGSFTLYSKLTVDKSRWQQGNVFSCSVMHEALHNHYTQKSLSLSPG heavy: EVQLVESGGGLVKPGGSLRLSCAASGFTFSSYSMNWVRQAPGKGLEWVSSISSSSSYIYYADSVKGRFTISRDNAKNSLYLQMNSLRAEDTAVYYCARGAPIGAAAGWFDPWGQGTLVTVSSASTKGPSVFPLAPSSKSTSGGTAALGCLVKDYFPEPVTVSWNSGALTSGVHTFPAVLQSSGLYSLSSVVTVPSSSLGTQTYICNVNHKPSNTKVDKKVEPKSCDKTHTCPPCPAPELLGGPSVFLFPPKPKDTLMISRTPEVTCVVVDVSHEDPEVKFNWYVDGVEVHNAKTKPREEQYNSTYRVVSVLTVLHQDWLNGKEYKCKVSNKALPAPIEKTISKAKGQPREPQVCTLPPSRDELTENQVSLTCLVKGFYPSDIAVEWESNGQPENNYKTTPPVLDSDGSFFLYSWLTVDKSRWQQGNVFSCSVMHEALHNHYTQKSLSLSPG light: DIQMTQSPSSVSASVGDRVTITCRASQGISSWLAWYQQKPGKAPKLLIYAASSLQSGVPSRFSGSGSGTDFTLTISSLQPEDFATYYCQQGVSFPRTFGGGTKVEIKRTVAAPSVFIFPPSDEQLKSGTASVVCLLNNFYPREAKVQWKVDNALQSGNSQESVTEQDSKDSTYSLSSTLTLSKADYEKHKVYACEVTHQGLSSPVTKSFNRGEC

Reference: patent publication US20220119534A1 (DRAGONFLY THERAPEUTICS, published 2022)
